In PMC3946371:

Target: Vaccinia virus D4 with non-cleavable N-terminal His-tag, co-expressed with MBP-A20(1-50) (vaccinia virus (Copenhagen strain)) (UniProt P20536)
Test: SEC-MALS

First 50 amino acids of vaccinia virus A20, wild type, released from MBP by TEV (from UniProt P20995 1-50) (domain or fragment)
stoichiometry N: 1
